Results on eleven molecules are retold here after patent US8629241B2, “Alpha helical mimics, their uses and methods for their production” (The University of Queensland, priority 2004, dated 2014).

Read-outs that look alike come from different tables or passages of the source. Where a SMILES comes first, the peptide text is derived from it. Bridges are numbered along the chain shown (N, C = ends). Where no end group is shown, it is not given here. [ ]: non-standard residue; d: D form. NPhGly = O=C(O)CNc1ccccc1; Orn = NCCC[C@H](N)C(=O)O

The format of the series is physicochemical. The settings on record: for [θ]207: molar elipticity at 207 nm; for θ222/θ208 / [θ]192 / [θ]208 / [θ]222: Table 8; for [θ]192 / [θ]208 / [θ]222: one or more cyclic pentapeptide modules versus linear peptides; for % helicity: fH × 100, [θ∞H]222 = −44000, k = 2.6. As to the method: Circular Dichroism (CD) was performed on peptides having SEQ ID NOs: 8 to 14 and 18 to 31, using methods described above. The molar elipticities at 222 nm, 208 nm and 190 nm, ratios of elipticities at 222 nm/208 nm and relative helicity are shown in Tables 6 and 7.
Assuming that mean alpha helix content (fH) is linearly related to elipticity at 222 nm, or in our case 215 nm ([θ]obs215), then the equation for calculating helix content is: fH=([θ]obs215−[θ]C)/([θ]∞215−[θ]C) (1) Luo and Baldwin^22 determined that the random coil ([θ]C) and infinite alpha helix ([θ]∞222) molar elipticities are temperature dependent based on the equations: [θ]C=2220−53T (2a) [θ]∞215=(−44000+250T)(1−k/Np) (2b) where T is temperature in degrees Celsius, Np is the number of peptide units, and k is a finite length correction.
CD was performed on peptides having one [SEQ ID NO: 8] or more than one modular macrocycle [SEQ ID NOs: 46 and 47], as compared with corresponding linear peptides, Ac[KARAD]n—NH2 where n=1 [SEQ ID NO: 14], n=2 [SEQ ID NO: 54] and n=3 [SEQ ID NO: 55]. The molar elipticities at 222 nm, 208 nm and 190 nm, ratios of elipticities at 222 nm/208 nm and percentage helicity are shown in Table 8.
CD experiments were performed on a Jasco Model J-710 spectropolarimeter which was routinely calibrated with (1S)-(+)-10-camphorsulfonic acid. Temperature control was achieved using a Neslab RTE-111 circulating water bath. Spectra were recorded in a 0.1 cm Jasco cell between 310-185 nm at 50 nm/min with a band width of 1.0 nm, response time of 2 sec, resolution step width of 0.1 nm and sensitivity of 20, 50 or 100 mdeg. Each spectrum represents the average of 5 scans with smoothing to reduce noise. Peptide samples for CD spectroscopy were dissolved in distilled water (˜1 mg/mL). Each stock solution was diluted to a final concentration of 50 μM in 10 mM sodium phosphate buffer (pH7.4), with or without additives (2,2,2-trifluoroethanol (TFE) or guanidine.HCl). Guanidine.HCl denaturation experiments were performed according to Creighton^105.
1D ^1H NMR spectra were then recorded with presaturation and a relaxation delay (d1) of 30 seconds to allow for full relaxation of peptide and DSS^1H signals to facilitate accurate integration of proton signals with S/N>250:1. This method provides reproducible concentrations within ±2%.
CD data in ellipticity was converted to mean peptide ellipticity using the equation: [θ]=θ/(10×C×Np×1) where θ is the ellipticity in millidegrees, C is the peptide molar concentration (M), 1 is the cell path length (cm), and Np is the number of peptide units (ie. pentapeptides […], 10 & 11 Np=5, 12 Np=4.)
Relative helicities were employed to allow scaling of compounds by dividing the [θ]obs215(8)/[θ]obs215(x) for pentapeptides, and [θ]obs215(24)/[θ]obs215(x) for hexapeptides.

[1] abbreviates: [θ]215 relative to SEQ ID NO: 8, 10 mM phosphate buffer, pH 7.4, 25° C.
Where [2] appears, read: molar elipticity at 190 nm, 10 mM phosphate buffer, pH 7.4, 25° C.
Where [3] appears, read: 10 mM phosphate buffer, pH 7.4, 25° C.
[4] abbreviates: molar elipticity at 215 nm, 10 mM phosphate buffer, pH 7.4, 25° C.
The mark [5] stands for this setting: ratio of elipticities, 10 mM phosphate buffer, pH 7.4, 25° C.
[6] abbreviates: cyclic hexapeptides 23-31, 10 mM phosphate buffer pH 7.4 at 25° C.
[7] abbreviates: θ215 relative to SEQ ID NO: 24, 10 mM phosphate buffer pH 7.4 at 25° C.

Under setting [1], “Ac-(cyclo-1,5)-[DARAK]-NH2 (Ac-DARAK-NH2; lactam 1-5; SMILES CC(=O)N[C@H]1CC(=O)NCCCC[C@@H](C(N)=O)NC(=O)[C@H](C)NC(=O)[C@H](CCCNC(=N)N)NC(=O)[C@H](C)NC1=O) [SEQ ID NO: 9]” yielded a Relative helicity of 0.60. Further, under setting [2], the “[θ]190” value was 15600 deg.cm^2.dmol^−1.residue^−1. Under setting [3], the “[θ]207” value is −10705 deg.cm^2.dmol^−1.residue^−1. The “[θ]215” value under setting [4] is on record as −7723 deg.cm^2.dmol^−1.residue^−1. Besides, the θ215/θ207 under setting [5] was found to be 0.72.
For “Cyclo(6-10, 11-15)-NpheGGFT[KARKD][KRKLD]-NH2 ([NPhGly]GGFTKARKDKRKLD-NH2; lactam 6-10, 11-15; N-terminus assumed; SMILES CC(C)C[C@@H]1NC(=O)[C@H](CCCCN)NC(=O)[C@H](CCCNC(=N)N)NC(=O)[C@@H](NC(=O)[C@@H]2CC(=O)NCCCC[C@H](NC(=O)[C@@H](NC(=O)[C@H](Cc3ccccc3)NC(=O)CNC(=O)CNC(=O)CNc3ccccc3)[C@@H](C)O)C(=O)N[C@@H](C)C(=O)N[C@@H](CCCNC(=N)N)C(=O)N[C@@H](CCCCN)C(=O)N2)CCCCNC(=O)C[C@@H](C(N)=O)NC1=O) [SEQ ID NO: 77]”, the “helicity by CD compared to native agonist and antagonist sequences” value (versus F/Nphe-[…], FIG. 12) is given as “increase helicity”.
Turning to “H-(cyclo-1,5)-[KARAD]-OH (H-KARAD-OH; lactam 1-5; SMILES C[C@@H]1NC(=O)[C@H](CCCNC(=N)N)NC(=O)[C@H](C)NC(=O)[C@@H](N)CCCCNC(=O)C[C@@H](C(=O)O)NC1=O) [SEQ ID NO: 22]”, the Relative helicity under setting [1] was 0.08. In addition, under setting [2], the “[θ]190” value is reported as −4966 deg.cm^2.dmol^−1.residue^−1. The “[θ]207” value under setting [3] was −5737 deg.cm^2.dmol^−1.residue^−1. For the same molecule, under setting [4], the “[θ]215” value was −1033 deg.cm^2.dmol^−1.residue^−1. In addition, under setting [5], the θ215/θ207 turned out to be 0.18.
Consider “cyclo(1-5, 6-10, 11-15)-Ac-[KARADKARADKARAD]-NH2 (Ac-KARADKARADKARAD-NH2; lactam 1-5, 6-10, 11-15; SMILES CC(=O)N[C@H]1CCCCNC(=O)C[C@@H](C(=O)N[C@H]2CCCCNC(=O)C[C@@H](C(=O)N[C@H]3CCCCNC(=O)C[C@@H](C(N)=O)NC(=O)[C@H](C)NC(=O)[C@H](CCCNC(=N)N)NC(=O)[C@H](C)NC3=O)NC(=O)[C@H](C)NC(=O)[C@H](CCCNC(=N)N)NC(=O)[C@H](C)NC2=O)NC(=O)[C@H](C)NC(=O)[C@H](CCCNC(=N)N)NC(=O)[C@H](C)NC1=O) [SEQ ID NO: 47]”, for which the θ222/θ208 is on record as 1.34, the “[θ]192” value stood at 100811 degcm^2dmol^−1residue^−1, the “[θ]208” value is −23842 degcm^2dmol^−1residue^−1 and the “[θ]222” value is given as −31987 degcm^2dmol^−1residue^−1. Moreover, the “% helicity” value came out at 88%.
For “Ac-(cyclo-1,5)-[OARAE]-NH2 (Ac-[Orn]ARAE-NH2; lactam 1-5; SMILES CC(=O)N[C@H]1CCCNC(=O)CC[C@@H](C(N)=O)NC(=O)[C@H](C)NC(=O)[C@H](CCCNC(=N)N)NC(=O)[C@H](C)NC1=O) [SEQ ID NO: 18]”, the Relative helicity under setting [1] is reported as 0. For the same molecule, under setting [2], the “[θ]190” value was −16228 deg.cm^2.dmol^−1.residue^−1. Under setting [3], the “[θ]207” value is −3368 deg.cm^2.dmol^−1.residue^−1. For the same molecule, under setting [4], the “[θ]215” value is on record as 741 deg.cm^2.dmol^−1.residue^−1. Besides, the θ215/θ207 under setting [5] was −0.22.
As for “Ac-(cyclo-2,6)-R[KGSAD]-NH2 (Ac-RKGSAD-NH2; lactam 2-6; SMILES CC(=O)N[C@@H](CCCNC(=N)N)C(=O)N[C@H]1CCCCNC(=O)C[C@@H](C(N)=O)NC(=O)[C@H](C)NC(=O)[C@H](CO)NC(=O)CNC1=O) [SEQ ID NO: 29]”, under setting [6], the “Molar ellipticity at 207 nm” value is −6975 deg.cm^2.dmol^−1.residue^−1, the “[θ]190” value is recorded as 12831 deg.cm^2.dmol^−1.residue^−1, the “[θ]215” value is listed as −4810 deg.cm^2.dmol^−1.residue^−1 and the θ215/θ207 is 0.69. Also, the “Relative helicity” value under setting [7] was 0.32.
On to “Ac-(cyclo-2,6)-R[KAMAD]-NH2 (Ac-RKAMAD-NH2; lactam 2-6; SMILES CSCC[C@@H]1NC(=O)[C@H](C)NC(=O)[C@@H](NC(=O)[C@H](CCCNC(=N)N)NC(C)=O)CCCCNC(=O)C[C@@H](C(N)=O)NC(=O)[C@H](C)NC1=O) [SEQ ID NO: 25]”, for which, under setting [6], the “Molar ellipticity at 207 nm” value is given as −12296 deg.cm^2.dmol^−1.residue^−1, the “[θ]190” value is on record as 38464 deg.cm^2.dmol^−1.residue^−1, the “[θ]215” value is given as −11853 deg.cm^2.dmol^−1.residue^−1 and the θ215/θ207 is 0.96. The molecule also showed a percentage helicities (equation 2b with k˜4, assuming 8 has 100% helicity) of 73%. For the same molecule, the “Relative helicity” value under setting [7] turned out to be 0.80.
As for “Ac-(cyclo-2,6)-R[KAGAD]-NH2 (Ac-RKAGAD-NH2; lactam 2-6; SMILES CC(=O)N[C@@H](CCCNC(=N)N)C(=O)N[C@H]1CCCCNC(=O)C[C@@H](C(N)=O)NC(=O)[C@H](C)NC(=O)CNC(=O)[C@H](C)NC1=O) [SEQ ID NO: 28]”, under setting [6], the “Molar ellipticity at 207 nm” value was −7678 deg.cm^2.dmol^−1.residue^−1, the “[θ]190” value is recorded as 10036 deg.cm^2.dmol^−1.residue^−1, the “[θ]215” value was −4874 deg.cm^2.dmol^−1.residue^−1 and the θ215/θ207 is 0.63. The “Relative helicity” value under setting [7] worked out at 0.32.
As to “SEQ ID NO: 55: linear peptide Ac(KARAD)n-NH2 where n=3 (Ac-KARADKARADKARAD-NH2)”, the θ222/θ208 amounted to 0.39, the “[θ]192” value is −8024 degcm^2dmol^−1residue^−1, the “[θ]208” value is −9788 degcm^2dmol^−1residue^−1 and the “[θ]222” value is reported as −3852 degcm^2dmol^−1residue^−1. Also, the “% helicity” value is on record as 7%.
With `CC(=O)N[C@@H](CCCCN)C(=O)N[C@@H](C)C(=O)N[C@@H](CCCNC(=N)N)C(=O)N[C@@H](C)C(=O)N[C@@H](CC(=O)O)C(=O)N[C@@H](CCCCN)C(=O)N[C@@H](C)C(=O)N[C@@H](CCCNC(=N)N)C(=O)N[C@@H](C)C(=O)N[C@@H](CC(=O)O)C(N)=O` [SEQ ID NO: 54] (Ac-KARADKARAD-NH2), the θ222/θ208 was 0.21, the “[θ]192” value is reported as −12237 degcm^2dmol^−1residue^−1, the “[θ]208” value is reported as −8552 degcm^2dmol^−1residue^−1 and the “[θ]222” value was −1836 degcm^2dmol^−1residue^−1. For the same molecule, the “% helicity” value is recorded as 3%.
Turning to “Ac-(cyclo-1,5)-[KARAD]-OH (Ac-KARAD-OH; lactam 1-5; SMILES CC(=O)N[C@H]1CCCCNC(=O)C[C@@H](C(=O)O)NC(=O)[C@H](C)NC(=O)[C@H](CCCNC(=N)N)NC(=O)[C@H](C)NC1=O) [SEQ ID NO: 20]”, the Relative helicity reads like this: under setting [1], 0; ([θ]215 relative to SEQ ID NO: 8, in 0.01 M HCl pH 2) 0.06. Further, the “[θ]190” value reads like this: under setting [2], −13953 deg.cm^2.dmol^−1.residue^−1; (molar elipticity at 190 nm, in 0.01 M HCl pH 2) −2659 deg.cm^2.dmol^−1.residue^−1. Besides, the “[θ]207” value by setting is: under setting [3], −5643 deg.cm^2.dmol^−1.residue^−1; (in 0.01 M HCl pH 2) −3195 deg.cm^2.dmol^−1.residue^−1. Also, the “[θ]215” value is reported as 207 deg.cm^2.dmol^−1.residue^−1 under setting [4] and −625 deg.cm^2.dmol^−1.residue^−1 (molar elipticity at 215 nm, in 0.01 M HCl pH 2). Also, the θ215/θ207 reads like this: under setting [5], −0.04; (ratio of elipticities, in 0.01 M HCl pH 2) 0.20.
